Test results published in US20190322724.

Tested on: blocking anti-c-Src monoclonal antibodies

Row | Substance | TIMP-2 tyrosine phosphorylation in SYF+c-Src CM (pulldown, anti-phos-Tyr immunoblot) | TIMP-2 tyrosine phosphorylation in HT1080 CM (pulldown, anti-phos-Tyr immunoblot)
1 | secreted c-Src (e-Src) in conditioned media of SYF+c-Src cells | TIMP-2 tyrosine phosphorylation was abolished | 
2 | secreted c-Src (e-Src) in conditioned media of HT1080 human fibrosarcoma cells |  | TIMP-2 tyrosine phosphorylation was abolished
